Patent US20170307628A1 (EIDGENOESSISCHE TECHNISCHE HOCHSCHULE ZURICH, published 2017)

Molecular target: T1, EGFR on cells (UniProt P00533 25-1210, limits assumed)
T1 construct: whole, on cells; also called epidermal growth factor receptor
Test: flow cytometry on MDA-MB-468 cells, anti-human-Alexa 488

binding result: no binding (tested: 100 nM)
B1: anti-CD3 antibody (COVA489) (antibody, human IgG1, kappa, V domains shown)
VH: QVQLQQSGAELARPGASVKMSCKASGYTFTRSTMHWVKQRPGQGLEWIGYINPSSAYTNYNQKFKDKATLTADKSSSTAYMQLSSLTSEDSAVYYCASPQVHYDYNGFPYWGQGTLVTVSA
VL: QVVLTQSPAIMSAFPGEKVTMTCSASSSVSYMNWYQQKSGTSPKRWIYDSSKLASGVPARFSGSGSGTSYSLTISSMETEDAATYYCQQWSRNPPTFGGGTKLQITR
